Key:
Assay in all cases: SPR, KD relative to WT C2;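 also: biacore SPR at 37 °C, anti-C2 mAbs captured via immobilised goat anti-human IgG, C2 alanine or serine surface mutants as analytes, 1:1 model fitted, double-referenced sensograms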
human C2 S456A = molecular target: T1, human C2 S456A (human, UniProt P06681 21-752)
T1 sequence: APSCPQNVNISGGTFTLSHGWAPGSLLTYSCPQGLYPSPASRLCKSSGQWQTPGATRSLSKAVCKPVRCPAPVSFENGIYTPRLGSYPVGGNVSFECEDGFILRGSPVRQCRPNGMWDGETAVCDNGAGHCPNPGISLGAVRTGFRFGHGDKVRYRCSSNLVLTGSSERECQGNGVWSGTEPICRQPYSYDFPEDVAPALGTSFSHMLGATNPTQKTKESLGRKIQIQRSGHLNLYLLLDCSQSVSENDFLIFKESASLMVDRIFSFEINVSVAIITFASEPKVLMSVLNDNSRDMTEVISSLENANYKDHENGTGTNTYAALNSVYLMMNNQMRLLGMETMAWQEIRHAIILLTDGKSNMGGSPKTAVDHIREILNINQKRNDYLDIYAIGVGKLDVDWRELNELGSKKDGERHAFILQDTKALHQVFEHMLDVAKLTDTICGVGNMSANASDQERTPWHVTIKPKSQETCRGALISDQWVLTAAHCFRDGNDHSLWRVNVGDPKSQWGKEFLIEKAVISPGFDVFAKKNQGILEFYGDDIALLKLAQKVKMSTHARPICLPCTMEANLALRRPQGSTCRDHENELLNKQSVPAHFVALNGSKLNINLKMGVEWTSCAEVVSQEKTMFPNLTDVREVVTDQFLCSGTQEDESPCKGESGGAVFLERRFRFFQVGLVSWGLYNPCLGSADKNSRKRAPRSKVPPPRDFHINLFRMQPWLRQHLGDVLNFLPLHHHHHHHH

human C2 Y702A = molecular target: T2, human C2 Y702A (human, UniProt P06681 21-752)
T2 sequence: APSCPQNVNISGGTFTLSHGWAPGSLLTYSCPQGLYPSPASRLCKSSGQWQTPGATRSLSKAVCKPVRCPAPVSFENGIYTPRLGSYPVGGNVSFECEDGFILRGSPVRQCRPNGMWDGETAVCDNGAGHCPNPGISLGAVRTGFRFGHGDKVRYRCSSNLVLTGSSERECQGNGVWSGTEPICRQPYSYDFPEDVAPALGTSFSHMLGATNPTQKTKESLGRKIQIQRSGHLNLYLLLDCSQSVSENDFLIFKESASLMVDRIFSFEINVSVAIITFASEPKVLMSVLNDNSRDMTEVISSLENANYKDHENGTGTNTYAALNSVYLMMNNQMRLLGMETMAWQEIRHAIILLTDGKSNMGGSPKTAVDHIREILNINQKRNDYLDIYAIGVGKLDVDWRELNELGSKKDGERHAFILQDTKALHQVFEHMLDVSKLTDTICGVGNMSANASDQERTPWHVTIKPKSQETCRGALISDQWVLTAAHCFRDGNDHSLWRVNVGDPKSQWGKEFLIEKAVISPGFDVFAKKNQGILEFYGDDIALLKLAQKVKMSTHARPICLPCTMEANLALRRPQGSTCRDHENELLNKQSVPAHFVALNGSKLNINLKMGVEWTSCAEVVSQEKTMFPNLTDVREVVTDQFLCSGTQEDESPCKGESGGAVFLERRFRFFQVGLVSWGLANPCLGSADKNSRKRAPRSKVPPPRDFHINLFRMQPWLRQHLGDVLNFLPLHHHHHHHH

human C2 D419A = molecular target: T3, human C2 D419A (human, UniProt P06681 21-752)
T3 sequence: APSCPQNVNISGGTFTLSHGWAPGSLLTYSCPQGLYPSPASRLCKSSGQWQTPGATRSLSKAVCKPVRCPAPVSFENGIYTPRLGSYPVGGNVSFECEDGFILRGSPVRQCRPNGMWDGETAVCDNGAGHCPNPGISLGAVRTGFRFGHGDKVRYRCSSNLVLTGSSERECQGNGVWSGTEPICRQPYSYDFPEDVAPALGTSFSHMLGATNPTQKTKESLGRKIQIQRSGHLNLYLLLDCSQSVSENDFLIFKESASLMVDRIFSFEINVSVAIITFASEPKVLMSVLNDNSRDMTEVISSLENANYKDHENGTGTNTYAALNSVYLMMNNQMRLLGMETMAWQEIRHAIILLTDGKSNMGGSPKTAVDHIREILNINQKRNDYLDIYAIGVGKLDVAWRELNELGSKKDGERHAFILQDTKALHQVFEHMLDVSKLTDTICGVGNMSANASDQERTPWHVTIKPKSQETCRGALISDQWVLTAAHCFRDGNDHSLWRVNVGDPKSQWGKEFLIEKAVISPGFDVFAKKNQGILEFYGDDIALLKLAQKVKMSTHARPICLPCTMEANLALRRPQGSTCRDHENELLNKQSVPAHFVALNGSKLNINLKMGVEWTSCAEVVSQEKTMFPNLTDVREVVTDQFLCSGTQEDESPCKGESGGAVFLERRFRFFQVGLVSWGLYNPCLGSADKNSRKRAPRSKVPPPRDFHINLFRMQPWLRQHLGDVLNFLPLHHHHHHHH

human C2 I320A = molecular target: T4, human C2 I320A (human, UniProt P06681 21-752)
T4 sequence: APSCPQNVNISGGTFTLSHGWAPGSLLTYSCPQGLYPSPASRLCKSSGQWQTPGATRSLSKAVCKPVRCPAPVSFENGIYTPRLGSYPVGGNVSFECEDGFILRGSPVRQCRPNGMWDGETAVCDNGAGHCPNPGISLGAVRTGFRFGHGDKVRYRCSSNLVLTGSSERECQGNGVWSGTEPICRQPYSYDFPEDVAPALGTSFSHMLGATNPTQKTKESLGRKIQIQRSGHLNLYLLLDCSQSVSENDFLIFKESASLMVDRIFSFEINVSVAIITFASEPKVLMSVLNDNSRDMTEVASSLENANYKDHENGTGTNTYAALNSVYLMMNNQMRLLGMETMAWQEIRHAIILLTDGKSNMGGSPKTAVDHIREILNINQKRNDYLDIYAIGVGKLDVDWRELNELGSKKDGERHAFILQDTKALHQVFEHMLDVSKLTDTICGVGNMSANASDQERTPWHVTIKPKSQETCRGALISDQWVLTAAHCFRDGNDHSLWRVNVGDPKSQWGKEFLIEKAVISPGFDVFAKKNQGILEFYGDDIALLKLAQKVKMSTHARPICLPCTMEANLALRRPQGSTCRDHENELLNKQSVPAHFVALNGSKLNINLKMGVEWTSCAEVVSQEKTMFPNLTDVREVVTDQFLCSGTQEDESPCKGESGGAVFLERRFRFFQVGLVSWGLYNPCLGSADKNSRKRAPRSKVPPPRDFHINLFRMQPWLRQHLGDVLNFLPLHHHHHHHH

B1: RF16-226 (antibody, human IgG4 S228P, lambda)
heavy: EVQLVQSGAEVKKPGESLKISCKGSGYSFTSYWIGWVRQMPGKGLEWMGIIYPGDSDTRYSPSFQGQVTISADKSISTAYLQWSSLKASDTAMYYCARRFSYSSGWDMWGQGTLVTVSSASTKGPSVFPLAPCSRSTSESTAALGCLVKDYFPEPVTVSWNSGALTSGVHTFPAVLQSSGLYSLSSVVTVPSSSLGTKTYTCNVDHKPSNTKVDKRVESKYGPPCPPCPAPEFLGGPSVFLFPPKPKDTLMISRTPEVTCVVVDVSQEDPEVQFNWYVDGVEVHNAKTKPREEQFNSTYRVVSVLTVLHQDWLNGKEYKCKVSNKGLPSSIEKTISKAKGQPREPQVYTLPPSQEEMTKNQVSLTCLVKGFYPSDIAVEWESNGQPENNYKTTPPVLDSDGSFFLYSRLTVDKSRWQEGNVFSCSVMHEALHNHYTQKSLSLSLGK
light: SYELTQPPSVSVSPGQTARITCSGDALTSKYVAWYQQKSGLAPLLVIYEDTRRPSGIPAKFSGSSSGSVATLTISGAHGDDEADYYCYSTDASGHQRVFGGGTKLTVLSQPKAAPSVTLFPPSSEELQANKATLVCLISDFYPGAVTVAWKADGSPVKAGVETTKPSKQSNNKYAASSYLSLTPEQWKSHRSYSCQVTHEGSTVEKTVAPTECS
notes: pH-dependent anti-C2 antibody from a phage display library; also called WT
Fold diff (human C2 S456A): 7 fold
Fold diff (human C2 Y702A): 11 fold
Fold diff (human C2 D419A): 2 fold
Fold diff (human C2 I320A): 12 fold

From patent US20220332804A1 (CSL INNOVATION, published 2022)
